Measurements taken from the domain aggregation screens of Martell et al. (2025).

test: soluble fraction after stress (log2 fold change); higher = more stays soluble; pooled small domains, quantitative proteomics; conditions: stress: 50 degC
How it was run: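 After stress at 50°C, the amount of each protein still soluble was measured. This was done on pooled custom libraries of small protein domains, using high-throughput quantitative proteomics. The figure given is a base-two log fold change and stands for aggregation propensity, with higher values meaning more protein stays in solution.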

“HMTYIQSNLKFLRNKMNISQEELAKRLFVTHQTVSNHENGKSQPNFEMIEKYASFFNVPFEDLIHKDLSL” and “HMQEDKSKYLFQRGTAITVLRPAGIVRIGKERVDAVSNGSYIDRGVAVRVIEVEGTRVVVEPVPE” are within 0.2 log units of each other in “soluble fraction (log2)” value: -0.0206 for the first, 0.13 for the second.

Compared with “HMYAGTWTTESGQWKYRQDDGTYAKGWLQDTDGRWYYFDANGRMLSNTATPDGYQVGEDGAWVNH”, “HMYHIYPVADNDTPKLSADRLEYSLSNALLTNKLLNIDEIKKIYNDVILDKDEDGTLELSFKS” is higher in “soluble fraction (log2)” value: -0.196 for the first, 0.0308 for the second.

“HMGTIRAPMPGTILKINVVDGDSVTKGDVLLILESMKMENSITSPKTGSVTSVYVSEGDPVQHGETLIDL” and “HMDVIDDAQAMEIALEDAGLSMDDLDRYELELHTKRSELVYSIELKSGTEEYEYDLRAADGTILKRDTDF” are within 0.2 log units of each other in “soluble fraction (log2)” value: -0.147 for the first, -0.168 for the second.

Compared with “HMDIYLDEVNRKILHLLSQGIKTRSLREYINLSMSAIEKRKKHMKELFLVEDGKDETLLNEARNKGF”, “HMSSTAIQAMIRRLIDGEDPRKPLSDARLAETLKASGVPVARRTVAKYRESMSIPSSQDRLRI” is higher in “soluble fraction (log2)” value: -1.43 for the first, -0.156 for the second.

Compared with “HMYRYGETPMVVVPDLIGRTVSDIYEEMNADFRLEKFGNGNTVISQAPKPGERVEQGSVIRVYLSGQDQ”, “HMENEIPVPELVGMSEADAAAKLASLGLERDTQREATADEESVGKVLRQEPTPGEYVDEGHKVTIWVGE” is lower in “soluble fraction (log2)” value: 0.157 for the first, -0.0704 for the second.

First: HMYATQLLQLEEMGFFDRAENIRALRATNGNVNAAVERL
Second: HMALIGSNLRHLRNERKLSQQELADLIRVGRTTIANIEANLANPGHKTLLEIVKVFDITIDELLHTDLTK
The “soluble fraction (log2)” value of the first is higher: 0.0407 for the first, -0.886 for the second.

Going from “HMGDAATVFRDHYNINSAAQAQAALDRKEALWEQPNPWRDSDNREVFDWAAQTVKDRFDSGKYKPK” to “HMRVGADLTQRERELLALMAQGMSNQEIAKRLEIAVPTVKFHITNILDKLQVGNRTEAVIAALEHKLVP”, the “soluble fraction (log2)” value falls from 0.129 to -0.58.

Going from “HMDYKSNLQEMVQTTKKSVTYELVKEEGPAHDRTFTMNVIVDGIVLGTGTAKSKKEAEQEAAHQALEKKA” to “HMLESPVEAIIRQIKQLITNGKLKPGDRLPAERLLAENFGVGRGYVREAIMKLEFFGLLKTSPQSGTYVAG”, the “soluble fraction (log2)” value falls from -0.0398 to -0.748.

Compared with “HMEVVRVEPGATVRDLGEALGVPPTRIIQILMGLGEMKTVTQTLSTEEIELVAEELGRRVEV”, “HMDYTGIPQSLLDLMKKDNIMPMQIQRAVAERNYYPVDTPISNYDPMFIEAKLVGAWDQVLNVISHLDLP” is lower in “soluble fraction (log2)” value: 0.135 for the first, -0.649 for the second.

Going from “HMNRIKIYPTPGSKVLSIENINFSLIHDFKILDIFGREVKNFTVSSEKNTKMLVDTSKLSDGLYFIFFNTF” to “HMKKITTANPLDINRATLAQLDTLPGIGPVTAERIIAYRSKVGRINSLDELKKISGLGGMKFEEIKPLLRV”, the “soluble fraction (log2)” value rises from -0.58 to 0.042.

First: HMLDGFEVGMTVMRKPGTETGFTGWPPFADKDEFPVIERIDTSDSTLLLRFNDTSWWINASLVEPSDV
Second: HMRNSFTVENTGERLDVFLTGQMPEFSRSHIQKLIASGQAWVNGVNRKGNFKLKPHDVVELEVPEPE
The “soluble fraction (log2)” value of the first is lower: -1.33 for the first, 0.53 for the second.

Going from “HMDVTDRLARRLQGLRSAQGLSLDALAARSGVSRSNISLIERGQSSPTATVLDKLSAALGVTLAALFEEP” to “HMPSPSTLAKVDPFLLVTNADSLLMARPDDSELRAAIITAHINLAKTNNSVDHYKEVLKIEPQNALANYN”, the “soluble fraction (log2)” value rises from -0.474 to 0.0175.

Compared with “HMSPREDQQSRKQHILEAAAVLFAERGYYKTTTADVARAVGVTQPYVFHFFKSKEELYLAVL”, “HMPAMYKAERMNQILSILADQGDVDVGTLARQFGVSLVTIRKDLTYLESSGQLVRTHGGAIAVA” is lower in “soluble fraction (log2)” value: -0.0115 for the first, -0.767 for the second.

“HMVSQKPKERELWFREQLELAGLRLDPHAISAINETLGNDTGRFPGIIDTLLSTYGAGKKLSYDDVVMFL” and “HMSVTYRLLITSSPGQAEVFLDGKRVGITPFSARLAAGWYQVRVSKEGYNLWEQHVQLREDQRLTATLT” are within 0.2 log units of each other in “soluble fraction (log2)” value: -0.477 for the first, -0.471 for the second.

“HMAATISPEIQAEAEKAAALGVESIKNFMASLKEKNPEQHALFSDSEKRRLYAIARKADLNTTQQG” and “HMNGVPDMSPVPEGARNSTLHAWAFGRLKNHPDNETGIREDLFRRGHASGLQDAELDQIWKSIKRTL” are within 0.2 log units of each other in “soluble fraction (log2)” value: -0.103 for the first, 0.0847 for the second.

“HMITIDADTGKRVYTRKEVADLVGASTQSIRLWEDAGAIPASVRDEGGYRYWYEEDLEAIKAYAS” and “HMWWTPIILRDALFGVQRFEDFQKNLDVSRATLSSRLTRLVDEGLMEKVEYQQHPVRHEYVLTEKGR” are within 0.2 log units of each other in “soluble fraction (log2)” value: -0.19 for the first, -0.108 for the second.

First: HMRTLKDSTEYLIRSMLLRGEMKVGEIYSANALAKELNISNSPVREAMMSLVDRGLLENVRNRGFRVV
Second: HMADRLITLSEVASLLRVSRHTVQAWISPSSPNHRPEFAIMARHAGRRTVFIEAEVTAWLDQRRG
The “soluble fraction (log2)” value of the first is higher: -1.44 for the first, -1.95 for the second.

First: HMRQQSLHSLYRDHHSWLQNWLRRQLGNTWDAADLSQDTFIKVLASSQSVAEIREPRAYLLTVGKRL
Second: HMTYNIPEHYQTIDVKEYVRKLVSDGDSDQIGRVEMELTEFETRNLFPVLKVLIYIIDTMRK
The “soluble fraction (log2)” value of the first is higher: -0.17 for the first, -2.45 for the second.

Compared with “HMNILNYIIENENQEVRVDKFLSDTIEDMSRSSVASIIEDGGLLVNDKLQNKKYKLKIGDKVQFTVPDPV”, “HMSLPQSKDAVITILRTLPQLDTRAPEVYKLLGPHALDIILEDPEQVAKKINHVGVATAKLWQQALLGFK” is lower in “soluble fraction (log2)” value: 0.113 for the first, -0.2 for the second.

Going from “HMSGSGYAYVDKYGYSHVVKDYDTAKNYASDGNVYNYSGSHKGGYAYDADNYRVPLDLPGSKPYG” to “HMPAERLSMRKIYEILRLKYGHGLSNREVALSVSVSRSTVADYLLRAQAAGLSWPLPDGLDETGLEQRLFP”, the “soluble fraction (log2)” value falls from -0.0115 to -2.02.

“HMELDLPLEELGLSTRVLHSLKEEGIESVRALLALNLKDLKNIPGIGERSLEEIKEALEKKGFTLK” and “HMSNIVNYEVYVYQNDAWDLLARYPSEKRAEAIEYAKSTEFSLNRPTKVIRETYDLDTQKFQEALIYLSE” are within 0.2 log units of each other in “soluble fraction (log2)” value: -0.0498 for the first, -0.239 for the second.

“HMALPQPDDDRQDTKKRILDMAEDLLLTRGFNAFSYQHISSELGMKNAAIHYHYPKKNDLGVAVIQRYRRR” and “HMSYKDIKEASDTGTYRDEENNIDVKWQKLFNGHNEYFDIEAYRDGERVEINNQQADRYIYLIKQEMD” are within 0.2 log units of each other in “soluble fraction (log2)” value: 0.151 for the first, 0.025 for the second.

First: HMSENIQLQKEQLYQLIAQLPEQRQKIFRLHKIDNYSYQEISDFTGLSRKTIANHIYLAHQFILKKVKK
Second: HMRQFEPVEGYNPYADKNELHGYEYWGAKFADSRSPEETAWIKQQIDDENEDRRFISEAGLA
The “soluble fraction (log2)” value of the first is lower: -3.25 for the first, -0.0012 for the second.

Going from “HMQRIFIDNHDRILYYSNPAGYIAGKEAVVDTMFQTQELERFLQKQSLSIRWEDGVYDRLLLGQ” to “HMSKFSDTLVYLRKRAGFSQQELADKMEVSRSLVGMYESGQRMPSYEMLEALADIFNVNIDFLTGH”, the “soluble fraction (log2)” value falls from 0.016 to -0.418.

Compared with “HMKKSIRIFELMKAKVAAEIFDQMILEGKIEDVFDIIVRLKDSNVSNIMKTMSVENSSRLVQKLERYNKD”, “HMNILVAISDTGEIWINKRRVDARAVQANIERLHAENPQGTVVIQADKQATTETLIKVMDASRAAGVFDVS” is higher in “soluble fraction (log2)” value: -2.18 for the first, -0.618 for the second.

“HMSHDTLVYRLAQMLVKLNQGEKLDPQQLAEEFGVNLRTIQRDLNVRFAYLQLEKTDGRYHLDPTFL” and “HMSRPLISNMLRLLNLPPTVQRKVAAGVISAGHARALLGLNDEKEIEKLANRIVAEGLSVRATEEIVAIA” are within 0.2 log units of each other in “soluble fraction (log2)” value: -0.999 for the first, -0.937 for the second.

First: HMHLYDMYNLTEKEISIIRLIANGLNNKEISQELFLSEGTIKNNITNILAKLELRDRTQLAIFAFKNKIVI
Second: HMLNPMILLTKGGENIRLDKFLSSHLSDLSRTQIQKMVKEGLVLVNGEPSKVGLKLDGSETIQYTLPK
The “soluble fraction (log2)” value of the first is lower: -0.484 for the first, -0.00634 for the second.

“HMYKIDFAEGDRVIIKGGAFSGLRATVVSLHPEKGMAKIKVYMFGDRETLVDIEVSQLEKDK” and “HMSALAQDGDLVQLQGAGYKSHILRLKAGEVLQTHRGVIQHDAVIGQPWGARLQSHTGSPFYLFQPGLADL” are within 0.2 log units of each other in “soluble fraction (log2)” value: -0.348 for the first, -0.522 for the second.

First: HMSGDYRALYSSLPPERASSVVDALNVAGIPYRIQDSTGAIMVPAEQIYDARIRLAGQGLGK
Second: HMDRGDVTREALIKAAIEIFGRDGFHAASTRAIAERAGANQALIGYHFRGKLGLYHATFEYIIGKI
The “soluble fraction (log2)” value of the first is higher: 0.227 for the first, -0.315 for the second.

Going from “HMAIELIDLIKNPETAPFSKLKYLKWMPEAEVTGFFNNLFQLNVTARETGDWSTVDKFLEDEGDRIAAQVA” to “HMGRELDLNQRVYDFIHDIADEVRTDEGTFSANQMMERFLFPGDLQSVPIGRLSGGERRRLYLLSVLMVKI”, the “soluble fraction (log2)” value rises from -0.138 to 0.117.

“HMGNYEEAILAFEAAIKIDPKNADAYRKLAEAYEKTGDEDAALRTLETGAEATGDRELADLAEKKRQELDA” and “HMKQKAEVIFVSKTIMEALSKGVRLTPENLKSETELPIDDFYARLKELIDNGSVVESRENGESYLEAGN” are within 0.2 log units of each other in “soluble fraction (log2)” value: 0.169 for the first, 0.0977 for the second.

“HMSPFYALDEVDSFLDGVNVERLAALIARQAEQAQFLVVSHRRPMIGASTRTIGVTQARGAHTQVVGLP” and “HMIFEEDILKEFRGSLIFITHDRRFLDNIATRIIELDRGKLLSFPGNFSAYKKAKNEQLANEAVENA” are within 0.2 log units of each other in “soluble fraction (log2)” value: -0.25 for the first, -0.446 for the second.

First: HMTVEVFQSLVQTFREMSPRKAASILEELKRDLAVEILLHMPEDGVAAILARMDPARAARLTEQLALEKD
Second: HMSSLTPRETEVLSRMAQGDANTSIAERLVITEKAVQKHINAIFAKLGLAEEPTSARRVLAVLAFLR
The “soluble fraction (log2)” value of the first is lower: -0.979 for the first, -0.512 for the second.

“HMFEFFKGIYSISLLKKDGIFFVTFKDENKEAVKHIFPEKPTALELGIKVMEMFEYKERYDGII” and “HMNADSLIGENIRISERVSNMDQTGMAVVHGQEWTVRTRNDNEIIEPGEEAKILAISGVKLIVEK” are within 0.2 log units of each other in “soluble fraction (log2)” value: -0.227 for the first, -0.119 for the second.

First: HMENSLLSESLAKIYIKTHRYERAYEILSRLSLAVPEKNAYFADQLRFLRKVMLAESFRKQHS
Second: HMNSFKIYPNPSSREVVRFNQAQDVKVYDTLGKLILSAKNTSAIDTKSFNTGIYFIKTANGLTKKLIV
The “soluble fraction (log2)” value of the first is higher: -0.00623 for the first, -0.695 for the second.

First: HMGEKPTEITLSNAISVQELAEKLYVSETDIIRTLFLDGIIVNINQVLDLETAVKVGDQLGVTITIVE
Second: HMPSSIEGIEKYLGSGMIRGIGAVYAKRLVKQFGKDVFDIIEETPERLREVEGIGPIRAARIISGWADQ
The “soluble fraction (log2)” value of the first is lower: -1.2 for the first, -0.41 for the second.

Compared with “HMQEKLELIIPVSSIGKRADVAIQDLLSSYSRAKIQEWIKSGFILLESKKISPKDIFMGGERVFIDIQQDE”, “HMLKTADAIASVLLTRIQAGEFSAGRLPAERALSEAFSTTRITLREALGKLEAQGMIYRELRRGWFIA” is lower in “soluble fraction (log2)” value: -1.41 for the first, -1.76 for the second.

In the case of “HMEHLTATERHLVAYLEAHLGQVPSLSITKLSQEANVSTASIVRTMKKLGYDGFTAFKHAIKQQLR”, the “soluble fraction (log2)” value is reported as -1.77.
